# Measured values published in patent US20220235136A1, “METHODS AND COMPOSITIONS FOR TREATING A DISEASE OR DISORDER” (YALE UNIVERSITY, priority 2019, published 2022).
# Experiments:
# [1] = molecular target: CD93 on cells in Example 20 (transfected HEK293T cells, FIG. 28A; CHO cells stably expressing CD93, FIG. 28B); species not stated; experiment: flow cytometry, CHO cells stably expressing CD93 stained with IGFBP7-Ig (dashed) or Control (solid), no competitor
# [2] = molecular target: CLEC14A on transfected HEK293T cells; experiment: flow cytometry, HEK293T cells transfected with CLEC14A stained with IGFBP7-Ig; dashed = transfectant, solid = WT 293T; histograms nearly overlie; the text tells this pair as not binding
# CD141 [3] = experiment: flow cytometry, HEK293T cells transfected with CD141 stained with IGFBP7-Ig; dashed = transfectant, solid = WT 293T; histograms overlie
# [4] = molecular target: CD93 on cells in Example 20 (transfected HEK293T cells, FIG. 28A; CHO cells stably expressing CD93, FIG. 28B); species not stated; experiment: flow cytometry, HEK293T cells transfected with CD93 stained with IGFBP7-Ig; dashed = transfectant, solid = WT 293T
# [5] = molecular target: CD93 on cells in Example 20 (transfected HEK293T cells, FIG. 28A; CHO cells stably expressing CD93, FIG. 28B); species not stated; experiment: flow cytometry, CHO cells stably expressing CD93 stained with IGFBP7-Ig (dashed) or Control (solid) in the presence of MMRN2 (panel '+MMRN2', form of the MMRN2 not stated); bar chart of MFI beside it marked ns against 'None'
# [6] = molecular target: CD248 on transfected HEK293T cells; experiment: flow cytometry, HEK293T cells transfected with CD248 stained with IGFBP7-Ig; dashed = transfectant, solid = WT 293T; histograms overlie; the text tells this pair as not binding
# [7] = molecular target: CD93 on cells in Example 20 (transfected HEK293T cells, FIG. 28A; CHO cells stably expressing CD93, FIG. 28B); species not stated; experiment: flow cytometry, CHO cells stably expressing CD93 stained with MMRN2-Ig (dashed) or Control (solid), no competitor
# [8] = molecular target: CD93 on cells in Example 20 (transfected HEK293T cells, FIG. 28A; CHO cells stably expressing CD93, FIG. 28B); species not stated; experiment: flow cytometry, CHO cells stably expressing CD93 stained with MMRN2-Ig (dashed) or Control (solid) in the presence of IGFBP7-His protein (panel '+IGFBP7'); bar chart of MFI beside it marked ns against 'None'
# CD141 [9] = experiment: flow cytometry, HEK293T cells transfected with CD141 stained with MMRN2-Ig; dashed = transfectant, solid = WT 293T; histograms nearly overlie
# [10] = molecular target: CD248 on transfected HEK293T cells; experiment: flow cytometry, HEK293T cells transfected with CD248 stained with MMRN2-Ig; dashed = transfectant, solid = WT 293T
# [11] = molecular target: CLEC14A on transfected HEK293T cells; experiment: flow cytometry, HEK293T cells transfected with CLEC14A stained with MMRN2-Ig; dashed = transfectant, solid = WT 293T
# [12] = molecular target: CD93 on cells in Example 20 (transfected HEK293T cells, FIG. 28A; CHO cells stably expressing CD93, FIG. 28B); species not stated; experiment: flow cytometry, HEK293T cells transfected with CD93 stained with MMRN2-Ig; dashed = transfectant, solid = WT 293T
# IGFBP7-Ig (Example 20, FIG. 28A and 28E; species not stated) (Fc fusion), sequence (Q16270 27-282): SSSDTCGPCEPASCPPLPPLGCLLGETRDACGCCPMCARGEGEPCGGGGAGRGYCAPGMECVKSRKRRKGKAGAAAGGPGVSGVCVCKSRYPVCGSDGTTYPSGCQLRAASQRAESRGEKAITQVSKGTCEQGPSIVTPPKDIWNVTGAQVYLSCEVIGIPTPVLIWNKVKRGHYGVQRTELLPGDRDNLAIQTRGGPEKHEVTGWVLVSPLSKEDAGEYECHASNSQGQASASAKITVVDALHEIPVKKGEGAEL
# CD93 on cells in Example 20 (transfected HEK293T cells, FIG. 28A; CHO cells stably expressing CD93, FIG. 28B); species not stated, sequence (Q9NPY3 22-652): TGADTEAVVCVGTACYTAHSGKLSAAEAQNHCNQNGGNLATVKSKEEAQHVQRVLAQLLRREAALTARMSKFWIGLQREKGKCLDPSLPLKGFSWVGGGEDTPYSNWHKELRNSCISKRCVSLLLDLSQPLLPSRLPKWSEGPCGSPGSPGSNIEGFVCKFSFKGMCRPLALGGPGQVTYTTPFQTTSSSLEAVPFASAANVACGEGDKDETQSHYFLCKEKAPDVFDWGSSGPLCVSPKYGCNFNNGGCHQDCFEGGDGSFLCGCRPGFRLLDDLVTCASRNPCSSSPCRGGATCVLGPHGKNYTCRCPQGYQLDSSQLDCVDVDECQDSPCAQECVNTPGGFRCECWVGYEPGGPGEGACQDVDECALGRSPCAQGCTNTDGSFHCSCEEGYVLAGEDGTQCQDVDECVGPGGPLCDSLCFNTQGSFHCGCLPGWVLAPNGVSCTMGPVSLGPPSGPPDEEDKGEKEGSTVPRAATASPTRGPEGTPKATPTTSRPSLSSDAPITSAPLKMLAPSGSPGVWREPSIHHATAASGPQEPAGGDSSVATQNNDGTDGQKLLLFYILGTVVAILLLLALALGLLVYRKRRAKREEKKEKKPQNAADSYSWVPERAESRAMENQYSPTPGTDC
# CD248 on transfected HEK293T cells, sequence (Q9HCU0 18-757): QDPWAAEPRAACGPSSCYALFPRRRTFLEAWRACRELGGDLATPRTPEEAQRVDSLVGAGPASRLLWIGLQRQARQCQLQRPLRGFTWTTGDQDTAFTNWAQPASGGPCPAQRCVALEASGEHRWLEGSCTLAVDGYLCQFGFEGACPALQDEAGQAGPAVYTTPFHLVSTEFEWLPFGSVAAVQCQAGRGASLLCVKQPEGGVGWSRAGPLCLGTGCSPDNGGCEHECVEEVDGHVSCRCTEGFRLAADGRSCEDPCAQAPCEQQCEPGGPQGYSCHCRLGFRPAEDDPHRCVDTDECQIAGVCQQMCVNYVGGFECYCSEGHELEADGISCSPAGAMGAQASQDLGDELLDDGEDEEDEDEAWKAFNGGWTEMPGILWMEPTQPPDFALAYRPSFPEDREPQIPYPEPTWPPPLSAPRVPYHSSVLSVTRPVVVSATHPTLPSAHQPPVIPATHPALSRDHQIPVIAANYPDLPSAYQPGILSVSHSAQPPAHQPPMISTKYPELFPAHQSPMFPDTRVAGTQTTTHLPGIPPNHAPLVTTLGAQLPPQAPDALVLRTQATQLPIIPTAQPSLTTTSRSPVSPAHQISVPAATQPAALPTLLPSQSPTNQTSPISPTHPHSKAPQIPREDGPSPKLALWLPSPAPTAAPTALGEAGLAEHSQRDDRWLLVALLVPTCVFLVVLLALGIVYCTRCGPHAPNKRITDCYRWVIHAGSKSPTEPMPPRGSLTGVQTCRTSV
# CLEC14A on transfected HEK293T cells, sequence (Q86T13 22-490): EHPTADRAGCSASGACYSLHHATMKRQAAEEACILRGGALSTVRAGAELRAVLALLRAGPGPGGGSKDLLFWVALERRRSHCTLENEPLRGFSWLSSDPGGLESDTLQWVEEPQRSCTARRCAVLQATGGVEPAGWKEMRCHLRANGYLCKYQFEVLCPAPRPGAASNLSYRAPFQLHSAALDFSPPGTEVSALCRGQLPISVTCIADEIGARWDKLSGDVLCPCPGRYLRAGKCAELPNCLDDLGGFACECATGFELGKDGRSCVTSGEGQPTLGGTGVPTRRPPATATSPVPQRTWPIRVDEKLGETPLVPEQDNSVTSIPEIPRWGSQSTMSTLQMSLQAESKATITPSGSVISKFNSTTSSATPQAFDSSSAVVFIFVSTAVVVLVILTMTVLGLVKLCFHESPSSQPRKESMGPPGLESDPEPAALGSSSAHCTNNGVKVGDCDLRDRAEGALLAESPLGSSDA
# CD141, sequence (P07204 19-575): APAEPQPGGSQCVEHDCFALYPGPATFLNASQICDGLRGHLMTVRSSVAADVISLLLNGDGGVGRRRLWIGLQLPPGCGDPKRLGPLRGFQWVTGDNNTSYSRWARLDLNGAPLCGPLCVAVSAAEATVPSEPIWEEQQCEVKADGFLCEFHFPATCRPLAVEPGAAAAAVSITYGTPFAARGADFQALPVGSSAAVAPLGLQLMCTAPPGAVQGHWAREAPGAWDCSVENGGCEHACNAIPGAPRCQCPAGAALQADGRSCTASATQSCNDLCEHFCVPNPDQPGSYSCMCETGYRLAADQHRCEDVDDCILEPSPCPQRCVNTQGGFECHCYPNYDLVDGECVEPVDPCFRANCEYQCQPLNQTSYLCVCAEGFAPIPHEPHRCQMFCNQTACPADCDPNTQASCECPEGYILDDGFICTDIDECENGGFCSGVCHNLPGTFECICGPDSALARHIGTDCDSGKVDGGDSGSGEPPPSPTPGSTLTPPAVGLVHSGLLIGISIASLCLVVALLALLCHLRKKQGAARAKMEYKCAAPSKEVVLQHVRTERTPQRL
"number printed over the positive gate of the histogram (percent of cells, unit not given) [1]","number printed over the positive gate of the histogram (percent of cells, unit not given) [2]","number printed over the positive gate of the histogram (percent of cells, unit not given) (CD141 [3])","number printed over the positive gate of the histogram (percent of cells, unit not given) [4]","number printed over the positive gate of the histogram (percent of cells, unit not given) [5]","number printed over the positive gate of the histogram (percent of cells, unit not given) [6]","number printed over the positive gate of the histogram (percent of cells, unit not given) [7]","number printed over the positive gate of the histogram (percent of cells, unit not given) [8]","number printed over the positive gate of the histogram (percent of cells, unit not given) (CD141 [9])","number printed over the positive gate of the histogram (percent of cells, unit not given) [10]","number printed over the positive gate of the histogram (percent of cells, unit not given) [11]","number printed over the positive gate of the histogram (percent of cells, unit not given) [12]",Substance
67,5.45,2.42,28.2,67.2,3.07,–,–,–,–,–,–,"IGFBP7-Ig (Example 20, FIG. 28A and 28E; species not stated) (Fc fusion)"
–,–,–,–,–,–,94.6,93.8,2.36,13.3,25.6,52.6,MMRN2-Ig (Fc fusion)
